Results from publication PMC10920880, “RNA compaction and iterative scanning for small RNA targets by the Hfq chaperone”.

B1: (AAC)4-S6-N35-S6 tandem mRNA on DNA tether (mixed)
RNA: GGACUCUAUCGAGUCCAACAACAACAACAGACCUCUCUACCAUCACCUAAACUUUACUCUACCAUCACCAGACCUCGCGCCCAGGACGACACACUUUGGACAGGACACACAGGACACAGG
DNA: CCTGTGTCCTGTGTGTCCTGTCCAAAGTGTGTCGTCC
B2: (AAC)6-Cy5-N35-S6 mRNA on DNA tether (mixed)
RNA: GGACUCUAUCGAGUCCAACAACAACAACAACAACCCCUGCAUCACCUAAACUUUACUCUACCAUCACCAGACCUCGCGCCCAGGACGACACACUUUGGACAGGACACACAGGACACAGG
DNA: B1 DNA
modifications: internal Cy5 after nt 35

Key:
[1] = target: T1, Hfq:R16A (rim mutant) (Escherichia coli K12, UniProt P0A6X3 1-102, R16A); assay: smFRET; sRNA (N13)-Hfq; half as much time on distant site as WT; smFRET: 10 mM Tris-HCl pH 7.5, 50 mM NaCl, 50 mM KCl, 4 mM Trolox, 0.01% Nikkol, 0.8% glucose, RNasin, oxygen scavenger; EMSA: 1x TNK, 5% glycerol, 15 min RT, native 8% PAGE 1x TBE 4 C; conditions: protein: recombinant; tags: none (untagged); chain copies: 6; label: tether 5' biotin, 3' Cy5; RNA 3' extension paired to DNA tether; 5' hairpin
[2] = target: Hfq:Y25D (distal face mutant) (Escherichia coli K12, UniProt P0A6X3 1-102, Y25D); assay: smFRET; 5 nM Y25D, compaction E~0.75; smFRET: 10 mM Tris-HCl pH 7.5, 50 mM NaCl, 50 mM KCl, 4 mM Trolox, 0.01% Nikkol, 0.8% glucose, RNasin, oxygen scavenger; EMSA: 1x TNK, 5% glycerol, 15 min RT, native 8% PAGE 1x TBE 4 C; conditions: protein: recombinant; tags: none (untagged); chain copies: 6; label: internal Cy5; tether 5' biotin, 3' Cy3 (unlabeled tether for sRNA assays); RNA 3' extension paired to DNA tether; 5' hairpin
[3] = target: Hfq:TM (triple rim mutant) (Escherichia coli K12, UniProt P0A6X3 1-102, R16A;R17A;R19D); assay: smFRET; 5 nM TM, less compaction E~0.37; smFRET: 10 mM Tris-HCl pH 7.5, 50 mM NaCl, 50 mM KCl, 4 mM Trolox, 0.01% Nikkol, 0.8% glucose, RNasin, oxygen scavenger; EMSA: 1x TNK, 5% glycerol, 15 min RT, native 8% PAGE 1x TBE 4 C; conditions: protein: recombinant; tags: none (untagged); chain copies: 6; label: internal Cy5; tether 5' biotin, 3' Cy3 (unlabeled tether for sRNA assays); RNA 3' extension paired to DNA tether; 5' hairpin
[4] = target: T1, Hfq:R16A (rim mutant); assay: smFRET; 5 nM R16A, less compaction E~0.43; smFRET: 10 mM Tris-HCl pH 7.5, 50 mM NaCl, 50 mM KCl, 4 mM Trolox, 0.01% Nikkol, 0.8% glucose, RNasin, oxygen scavenger; EMSA: 1x TNK, 5% glycerol, 15 min RT, native 8% PAGE 1x TBE 4 C; conditions: protein: recombinant; tags: none (untagged); chain copies: 6; label: internal Cy5; tether 5' biotin, 3' Cy3 (unlabeled tether for sRNA assays); RNA 3' extension paired to DNA tether; 5' hairpin

| Binder | binding result [1] | binding result [2] | binding result [3] | binding result [4] |
| --- | --- | --- | --- | --- |
| B1 | binds | – | – | – |
| B2 | – | binds | binds | binds |
